Measurements: article PMC12846601

Target: HexaPro, recombinant SARS-CoV-2 spike protein vaccine candidate (SARS-CoV-2) (UniProt P0DTC2)
Assay: SEC; […], PBS ([…], pH 6.5), 1.25 mL/min, […]

Substance “HexaPro, recombinant SARS-CoV-2 spike protein vaccine candidate (from UniProt P0DTC2 14-1273) (natural protein)” has a stoichiometry N of 3.
